B1: V(D)J recombination-activating protein 2, residues 415 to 491; numbered along this chain, P55895 (parent)
chain: YWITCCPTCDVDINTWVPFYSTELNKPAMIYCSHGDGHWVHAQCMDLAERTLIHLSAGSNKYYCNEHVEIARALHTP

Variants of: B1
Assay: abundance fitness (aPCA) (normalised: wild type 0, dead -1); higher = more abundant; growth selection in yeast, the domain comes from the species named
Settings: Homo sapiens

Abundance fitness of substitutions, site by site:
S56: I -0.113; K 0.029; L -0.046; N -0.194; P -0.074; Q -0.031; T 0.004; V 0.005; W -0.07; Y 0.052
A57: C -0.124; D 0.04; E -0.03; G -0.068; H 0.091; I 0.216; K -0.111; M -0.156; N 0.057; P -0.029; S 0.048; T -0.121; V -0.14; W -0.276; Y -0.108
G58: A -0.049; C -0.061; D 0.016; E 0.041; F -0.221; H 0.013; I -0.003; K -0.063; L 0.025; M -0.11; N -0.426; P -0.013; Q 0.025; R -0.165; S -0.038; T -0.199; V -0.161; W -0.06; Y -0.126
S59: A 0.078; C -0.005; E 0.002; F -0.088; G 0.019; H -0.043; I 0.103; K 0.053; L -0.087; M -0.042; N -0.25; P 0.062; Q -0.224; R -0.115; T 0.02; V -0.068; W -0.225; Y -0.031
N60: A 0.002; C -0.209; D 0.01; E 0.046; F -0.273; G -0.017; H -0.084; I -0.045; K -0.114; M -0.081; P -0.118; Q -0.069; R -0.058; S -0.062; T -0.022; V -0.04; W -0.207
K61: A 0.017; C -0.098; E -0.002; G 0.06; L 0.158; N -0.115; Q 0.097; R -0.287; S -0.116; T -0.045; V 0.069; W -0.159
Y62: A -0.328; C -0.442; D -0.558; F -0.003; G -0.495; H -0.377; I -0.281; K -0.6; L -0.304; M -0.206; N -0.469; P -0.67; Q -0.312; R -0.561; T -0.152; V -0.342; W 0.067
Y63: A -0.048; C 0.188; D -0.207; E -0.068; F -0.002; G -0.377; H -0.012; I 0.036; K -0.005; M -0.171; R -0.049; S -0.18; V -0.051; W 0.115
C64: A -1.01; E -1.05; F -0.851; G -0.935; H -0.962; K -0.842; L -1.07; M -1.06; P -0.822; Q -0.768; R -0.945; S -0.803; T -1.05; V -0.557; W -0.901; Y -0.712
N65: A 0.001; C -0.138; E 0.058; F -0.172; G 0.012; H 0.003; I 0.185; K -0.047; L 0.008; M -0.12; P 0.016; Q -0.181; R 0.079; S 0.079; T -0.005; V 0.008; W 0.036; Y -0.318
E66: A -0.025; C 0.023; F -0.193; G 0.006; H -0.22; I -0.17; K -0.099; L 0.01; M 0.048; N -0.381; P -0.231
